The values that follow come from PMC8283798.

The first assay deals with FcγRIIIa-V158 (high-affinity FcγIIIa receptor allele) (human) (UniProt P08637). The experiment in a line: ELISA. Background: In an ELISA, binding on a coated surface is turned into a signal by an enzyme label.
One may read the EC50 as the midpoint of the concentration-response curve. Substance “G2F (1), core-fucosylated Herceptin glycoform carrying the biantennary complex-type N-glycan (antibody)” showed an EC50 of 0.0426 µM.

As to “G2Ara (6), core D-arabinosylated Herceptin (antibody)”, the half-maximal effective concentration (EC50) was found to be 0.0397 µM. The same measure, in the same setting: the figure for “G2(NH2)F (3), core 6-amino-fucosylated Herceptin (antibody)” is 0.00925 µM. With “G2(Az)F (2), core 6-azido-fucosylated Herceptin carrying a complex-type N-glycan (antibody)”, the EC50 stood at 0.00286 µM. For the substance “G2 (11), nonfucosylated Herceptin glycoform carrying the biantennary complex-type N-glycan (antibody)”, the EC50 was determined as 0.00121 µM. Same read-out and setting: the figure for “G2(OH- triazol)F (4), core 6-triazole-fucosylated Herceptin (antibody)” is 0.0182 µM; for “G2Gal (5), core L-galactosylated Herceptin (antibody)” it is 0.00719 µM.

In another assay the target is FcγRIIIa-F158 (low-affinity FcγIIIa receptor allele) (human) (UniProt P08637). Put plainly: ELISA.
For “G2F (1), core-fucosylated Herceptin glycoform carrying the biantennary complex-type N-glycan (antibody; other documents disagree on this pair)”, the EC50 is 1.57 µM. On the same count and under the same terms, the figure for “G2(Az)F (2), core 6-azido-fucosylated Herceptin carrying a complex-type N-glycan (antibody; other documents disagree on this pair)” is 0.0128 µM; for “G2Ara (6), core D-arabinosylated Herceptin (antibody; other documents disagree on this pair)” it is 1.43 µM; for “G2 (11), nonfucosylated Herceptin glycoform carrying the biantennary complex-type N-glycan (antibody; other documents disagree on this pair)” it is 0.0115 µM. Still for that read-out and setting: under “G2(NH2)F (3), core 6-amino-fucosylated Herceptin (antibody; other documents disagree on this pair)” stands 0.0893 µM; under “G2(OH- triazol)F (4), core 6-triazole-fucosylated Herceptin (antibody; other documents disagree on this pair)”, 0.0814 µM. “G2Gal (5), core L-galactosylated Herceptin (antibody; other documents disagree on this pair)” yielded an EC50 of 0.0846 µM.
